Results: publication PMC11873350
Where two headings read alike, the source gives them in different places.

Experiments:
Experiment in all cases: BLI
[1] = biological target: SHH002-hu1-MICA (human) (UniProt Q29983)
[2] = biological target: rhNKG2D-Fc (human) (UniProt P26718)
[3] = biological target: rhNKG2D-Fc (human) (UniProt P26718); remark: listed apart in the source

Sequence of UniProt Q29983 (Q29983 whole entry, looked up): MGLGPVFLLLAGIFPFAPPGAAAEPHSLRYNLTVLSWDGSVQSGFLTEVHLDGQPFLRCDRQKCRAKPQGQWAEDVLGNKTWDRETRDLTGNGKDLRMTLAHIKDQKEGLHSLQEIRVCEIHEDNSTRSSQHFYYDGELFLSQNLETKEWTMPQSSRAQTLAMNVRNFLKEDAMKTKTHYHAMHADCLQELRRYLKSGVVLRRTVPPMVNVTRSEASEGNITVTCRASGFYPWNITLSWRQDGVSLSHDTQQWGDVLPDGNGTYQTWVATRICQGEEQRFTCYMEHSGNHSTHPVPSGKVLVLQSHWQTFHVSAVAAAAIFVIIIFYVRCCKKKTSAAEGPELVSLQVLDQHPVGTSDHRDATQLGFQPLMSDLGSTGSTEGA

Substance | Kd [1] [nM] | Kd [2] [nM] | Kd [3] [nM]
rhFzd7-His (from UniProt O75084 33-574) (receptor) | < 0.001 |  | 
rhMICA-His (from UniProt Q29983 24-383) (ligand) |  | 12.6 | 1.26
rhNKG2D-Fc (from UniProt P26718 73-216) (Fc fusion) | 45.2 |  | 
